Data published in US20200308301A1 (Novartis, published 2020).
Where a chain is given by its changes, count along the chain named.

B1: IDT3 (Fab, V domains shown)
VH: QVQLVESGGGLVKPGGSLRLSCAASGFTFQSAAVHWVRQAPGKGLEWVGRIKSKADGGTTDYAAPVKGRFTISRDDSKNTLYLQMNSLKTEDTAVYYCARDSPSISSYSIPYFSGMDVWGQGTLVTVSS
VL: DIQMTQSPSSLSASVGDRVTITCRASQGIRAWLNWYQQKPGKAPKLLIYAASSLQSGVPSRFSGSGSGTDFTLTISSLQPEDFATYYCHQYITHPPTFGQGTKVEIKR
notes: Fab; also called anti-NOV1401 Fab IDT3
B2: IDT12 (antibody, human IgG1, kappa, V domains shown)
VH: B1 VH with Q30S
VL: B1 VL
notes: also called anti-NOV1401 IgG IDT12; full length IgG format for IDT2
B3: NOV1401 (antibody, human IgG1, lambda, V domains shown)
VH: QVQLLESGGGLVQPGGSLRLSCAASGFTFSTAAMSWVRQAPGKGLEWVSGISGSGSSTYYADSVKGRFTISRDNSKNTLYLQMNSLRAEDTAVYYCARELSYLYSGYYFDYWGQGTLVTVSS
VL: QSVLTQPPSASGTPGQRVTISCSGSSSNIGSNDVSWYQQLPGTAPKLLIYKNYNRPSGVPDRFSGSKSGTSASLAISGLQSEDEADYYCSAWDQRQFDVVFGGGTKLTVLG
notes: It was amine-coupled to the chip in SPR, and used soluble and biotinylated in SET; also called anti-FXI/FXIa antibody NOV1401; anti-Factor XI/FXIa antibody NOV1401
B4: IDT11 (antibody, human IgG1, kappa, V domains shown)
VH: QVQLLESGGGLVQPGGSLRLSCAASGFTFSDYAMSWVRQAPGKGLEWVSVIDYSSSNTYYADSVKGRFTISRDNSKNTLYLQMNSLRAEDTAVYYCAREGYSYRSIRFDYWGQGTLVTVSS
VL: DIQMTQSPSSLSASVGDRVTITCRASQSISSNLNWYQQKPGKAPKLLIYAASNLQSGVPSRFSGSGSGTDFTLTISSLQPEDFATYYCLQFDHTPFTFGQGTKVEIKR
notes: also called anti-NOV1401 IgG IDT11; full length IgG format for IDT1
B5: IDT1 (Fab, V domains shown)
VH: B4 VH
VL: B4 VL
notes: Fab (heavy chain is VH-CH1); also called anti-NOV1401 Fab IDT1

Key:
NOV1401 [1] = molecular target: B3; experiment: cell-based or functional assay
NOV1401 [2] = molecular target: B3; experiment: cell-based or functional assay; remark: listed apart in the source
[3] = molecular target: T1, Human plasma-derived FXIa (human, UniProt P03951 19-625); experiment: SPR, FXIa immobilized on GLC chip
T1 construct: also called Factor XIa
Description: SPR experiments were performed in principle as described in Example 2 with the following changes. Human plasma-derived FXIa was used as ligand and immobilized on an activated ProteOn GLC sensor chip (Bio-Rad Laboratories, Inc.) using standard amine coupling procedures as described and by injecting FXIa at a concentration of 10 μg/ml in 20 mM sodium acetate, pH 5.0 and at a flow rate of 30 μl/min for 10 min.
For binding competition studies NOV1401 and three mixture of NOV1401 with anti-NOV1401 Fab at molar ratios of 1:1, 1:2, and 1:10 were prepared in PBS/T buffer and injected in simultaneously onto surfaces with immobilized FXI at a flow rate of 100 μL/min. Sensorgrams were recorded for association and dissociation times of 220 s and 1800 s, respectively. Blank surfaces were used for background corrections.

NOV1401 [4] = molecular target: B3; experiment: Solution equilibrium titration (SET), 1:1 fit, average
Description: (§1) 14 serial (2×) dilutions of NOV1401 were prepared in sample buffer (PBS pH 7.4 containing 0.5% (w/v) BSA and 0.02% Tween 20) and a constant concentration of the anti-NOV1401 Fab or IgG was added to each NOV1401 concentration ranging from 40 pM to 240 pM. Optimal constant anti-NOV1401 Fab or IgG concentrations and optimal starting concentrations for NOV1401 dilution series were determined in pilot experiments.
(§2) After incubation and three times washing with PBST (PBS containing 0.05% Tween 20) 30 μl/well of the NOV1401/anti-NOV1401 Fab or IgG preparation was transferred from the polypropylene MTP to the NOV1401-coated SA plate and incubated for 30 min at RT on a MTP shaker. After three additional wash steps, 30 μl of 0.5 μg/ml detection antibody (Goat anti-human Kappa LC-HRP, BETHYL # A80-115P) diluted in sample buffer was added to each well and incubated for 1 h at RT with shaking. After washing the plate again three times, 30 μl of detection reagent (LumiGLO Peroxidase Chemiluminescent Substrate, KPL #54-61-01) was added to each well. Electrochemiluminescence (ECL) signals were generated and detected immediately with a luminescence imager (SpectraMax M5, Molecular Devices, LLC).
Average ECL-signals were calculated from duplicate measurements within each assay. Data were baseline adjusted by subtracting the lowest value from all data points and plotted against the corresponding antigen concentration. KD values were determined by fitting the plot with the following non-linear curve fitting model for 1:1 binding according to Haenel et al 2005: […]

NOV1401 [5] = molecular target: B3; experiment: SPR (ProteOn XPR36), NOV1401 immobilized, Fab as analyte, 1:1 Langmuir fit, average
Description: SPR binding experiments were performed on a ProteOn XPR36 instrument (Bio-Rad Laboratories, Inc.) in PBS/T buffer (50 mM phosphate, 150 mM NaCl, pH 7.4, 0.005% v/v Tween-20) at 25° C. NOV1401 (‘Ligand’) was immobilized onto an activated ProteOn GLC sensor chip (Bio-Rad Laboratories, Inc.) using standard amine coupling procedures as described by the manufacturer. Briefly, NOV1401 was injected at a concentration of 10 μg/ml in 20 mM sodium acetate, pH 5.0 and at a flow rate of 30 μl/min for 10 min. Unreacted groups were blocked by injecting 1 M ethanolamine.
For kinetic studies anti-NOV1401 Fabs (‘Analytes’) were diluted in PBS/T buffer to generate a dilution series with concentrations ranging from 0.125-4 nM. Fabs were injected onto surfaces with immobilized NOV1401 at a flow rate of 100 μL/min and sensorgrams were recorded for association and dissociation times of 220 s and 1800 s, respectively. Blank surfaces were used for background corrections. There was no need to regenerate surfaces since the ProteOn protein interaction array system allows to run up to six binding experiments on an identical surface in parallel.
Data processing and analysis including kon, koff, and KD determination were performed with the ProteOn Manager™ software version 3.1.0.6.

NOV1401 [6] = molecular target: B3; experiment: Solution equilibrium titration (SET), IgG, 1:1 fit, average
Description: as §1
as §2, with “After washing the plate again three times, 30 μl of detection reagent (LumiGLO Peroxidase Chemiluminescent Substrate, KPL #54-61-01) was added to each well.” left out
Average ECL-signals were calculated from duplicate measurements within each assay. […] KD values were determined by fitting the plot with the following non-linear curve fitting model for 1:1 binding according to Haenel et al 2005: […]

[7] = molecular target: Human FXI in normal human plasma (human, UniProt P03951 19-625); experiment: cell-based or functional assay
IDT3 = molecular target: B1; experiment: SET: soluble NOV1401 titrated against constant IDT3 Fab; competitor is plate-bound biotinylated NOV1401; free Fab read as RLU
Description: as §1
(§3) 30 µl/well of each dilution mix was distributed in duplicates to a 384-well polypropylene Eppendorf microplate (MTP). Sample buffer served as negative control and a sample containing no antigen as positive control (Bmax). The plate was sealed and incubated overnight at RT on a plate shaker.
as §2, with “After washing the plate again three times, 30 μl of detection reagent (LumiGLO Peroxidase Chemiluminescent Substrate, KPL #54-61-01) was added to each well.” left out

IDT4 = molecular target: T2, IDT4; experiment: SET: soluble NOV1401 titrated against constant IDT4 Fab; competitor is plate-bound biotinylated NOV1401; free Fab read as RLU
T2 construct: Fab; also called anti-NOV1401 Fab IDT4
Description: as §1, §3
as §2, with “After washing the plate again three times, 30 μl of detection reagent (LumiGLO Peroxidase Chemiluminescent Substrate, KPL #54-61-01) was added to each well.” left out

IDT5 = molecular target: T3, IDT5; experiment: SET: soluble NOV1401 titrated against constant IDT5 Fab; competitor is plate-bound biotinylated NOV1401; free Fab read as RLU
T3 construct: Fab; also called anti-NOV1401 Fab IDT5
Description: as §1, §3
as §2, with “After washing the plate again three times, 30 μl of detection reagent (LumiGLO Peroxidase Chemiluminescent Substrate, KPL #54-61-01) was added to each well.” left out

IDT7 = molecular target: T4, IDT7; experiment: SET: soluble NOV1401 titrated against constant IDT7 Fab; competitor is plate-bound biotinylated NOV1401; free Fab read as RLU
T4 construct: Fab; also called anti-NOV1401 Fab IDT7
Description: as §1, §3
as §2, with “After washing the plate again three times, 30 μl of detection reagent (LumiGLO Peroxidase Chemiluminescent Substrate, KPL #54-61-01) was added to each well.” left out

IDT8 = molecular target: T5, IDT8; experiment: SET: soluble NOV1401 titrated against constant IDT8 Fab; competitor is plate-bound biotinylated NOV1401; free Fab read as RLU
T5 construct: Fab; also called anti-NOV1401 Fab IDT8
Description: as §1, §3
as §2, with “After washing the plate again three times, 30 μl of detection reagent (LumiGLO Peroxidase Chemiluminescent Substrate, KPL #54-61-01) was added to each well.” left out

IDT9 = molecular target: T6, IDT9; experiment: SET: soluble NOV1401 titrated against constant IDT9 Fab; competitor is plate-bound biotinylated NOV1401; free Fab read as RLU
T6 construct: Fab; also called anti-NOV1401 Fab IDT9
Description: as §1, §3
as §2, with “After washing the plate again three times, 30 μl of detection reagent (LumiGLO Peroxidase Chemiluminescent Substrate, KPL #54-61-01) was added to each well.” left out

IDT10 = molecular target: T7, IDT10; experiment: SET: soluble NOV1401 titrated against constant IDT10 Fab; competitor is plate-bound biotinylated NOV1401; free Fab read as RLU
T7 construct: Fab; also called anti-NOV1401 Fab IDT10
Description: as §1, §3
as §2, with “After washing the plate again three times, 30 μl of detection reagent (LumiGLO Peroxidase Chemiluminescent Substrate, KPL #54-61-01) was added to each well.” left out

IDT11 = molecular target: B4; experiment: SET: soluble antigen (NOV1401 by the legend and Example 2, axis labelled MAA868) titrated against constant IDT11 IgG; competitor is plate-bound biotinylated NOV1401; free IgG read as RLU
Description: as §1, §3
as §2, with “After washing the plate again three times, 30 μl of detection reagent (LumiGLO Peroxidase Chemiluminescent Substrate, KPL #54-61-01) was added to each well.” left out

IDT12 = molecular target: B2; experiment: SET: soluble antigen (NOV1401 by the legend and Example 2, axis labelled MAA868) titrated against constant IDT12 IgG; competitor is plate-bound biotinylated NOV1401; free IgG read as RLU
Description: as §1, §3
as §2, with “After washing the plate again three times, 30 μl of detection reagent (LumiGLO Peroxidase Chemiluminescent Substrate, KPL #54-61-01) was added to each well.” left out

aPTT percentage reversal, NOV1401/anti NOV1401 ratio 1/1 (n/n) (NOV1401 [1]) [%] | aPTT percentage reversal, NOV1401/anti NOV1401 ratio 1/3 (n/n) (NOV1401 [1]) [%] | aPTT percentage reversal, NOV1401/anti NOV1401 ratio 1/10 (n/n) (NOV1401 [1]) [%] | TGA percentage reversal, NOV1401/anti NOV1401 ratio 1/1 (n/n) (NOV1401 [2]) [%] | TGA percentage reversal, NOV1401/anti NOV1401 ratio 1/3 (n/n) (NOV1401 [2]) [%] | TGA percentage reversal, NOV1401/anti NOV1401 ratio 1/10 (n/n) (NOV1401 [2]) [%] | binding result [3] | Kd (NOV1401 [4]) [nM] | Kd (NOV1401 [5]) [nM] | Kd (NOV1401 [6]) [nM] | TGA in human plasma: IC50 of NOV1401 for reduction of peak thrombin [7] [nM] | binding result (IDT3) | binding result (IDT4) | binding result (IDT5) | binding result (IDT7) | binding result (IDT8) | binding result (IDT9) | binding result (IDT10) | IC50 (read off the curve) (IDT11) [nM] | IC50 (read off the curve) (IDT12) [nM] | Binder
9 | 35 | 58 | 31 | 47 | 67 | no binding | 0.1 | 0.24 | – | – | – | – | – | – | – | – | – | – | – | B1
9 | 51 | 61 | 60 | 64 | 62 | – | – | – | 0.0051 | – | – | – | – | – | – | – | – | – | – | B2
– | – | – | – | – | – | – | – | – | – | 50 | binds | binds | binds | binds | binds | binds | binds | ~0.008 | ~0.01 | B3
19 | 55 | 57 | 50 | 59 | 67 | – | – | – | 0.0007 | – | – | – | – | – | – | – | – | – | – | B4
12 | 45 | 64 | 49 | 55 | 55 | no binding | 0.11 | 0.44 | – | – | – | – | – | – | – | – | – | – | – | B5
